Molecular target: transferrin receptor (TfR) (human) (UniProt P02786)
Assay: HeLa cell based 125I-transferrin assay

Sequence of transferrin receptor (TfR) (human) (P02786 whole entry): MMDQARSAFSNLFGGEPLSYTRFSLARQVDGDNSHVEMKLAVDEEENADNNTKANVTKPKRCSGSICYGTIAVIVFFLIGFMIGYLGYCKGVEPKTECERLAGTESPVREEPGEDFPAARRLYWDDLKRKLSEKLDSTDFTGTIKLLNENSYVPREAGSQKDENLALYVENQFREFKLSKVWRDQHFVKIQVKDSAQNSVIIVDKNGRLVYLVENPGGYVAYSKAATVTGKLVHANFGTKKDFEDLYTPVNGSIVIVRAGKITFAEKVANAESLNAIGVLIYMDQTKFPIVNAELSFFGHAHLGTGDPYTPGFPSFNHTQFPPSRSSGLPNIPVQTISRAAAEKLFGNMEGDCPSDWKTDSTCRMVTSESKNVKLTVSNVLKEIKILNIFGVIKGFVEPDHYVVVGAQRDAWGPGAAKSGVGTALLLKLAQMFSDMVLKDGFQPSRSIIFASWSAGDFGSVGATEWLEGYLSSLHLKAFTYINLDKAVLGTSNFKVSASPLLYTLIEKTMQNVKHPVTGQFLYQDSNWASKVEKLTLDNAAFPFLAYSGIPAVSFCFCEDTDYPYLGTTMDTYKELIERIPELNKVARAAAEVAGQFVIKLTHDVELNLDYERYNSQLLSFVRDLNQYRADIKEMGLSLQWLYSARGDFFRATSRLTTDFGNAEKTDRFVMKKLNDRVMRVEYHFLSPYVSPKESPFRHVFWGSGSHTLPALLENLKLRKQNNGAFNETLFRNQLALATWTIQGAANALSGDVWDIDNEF

K: 105 nM
Substance: soluble H63D-HFE/β2m heterodimer (from UniProt P61769 21-119)

— patent US20060287236A1
